Results on 20 molecules are retold here after patent US20230250190A1 (published 2023).

Experiment in all cases: glycopeptide array
The target in test [1] is T1, T9 (Tn-MUC1) (PAPGSTAPPAHGVT(α-GalNAc)S(α-GalNAc)APDTRPAPG-OH).
T1 peptide: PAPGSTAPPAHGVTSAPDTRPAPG

Test [2] addresses T2, T4 (Tn-MUC1) (PAPGSTAPPAHGVT(α-GalNAc)SAPDTRPAPG-OH).
T2 peptide: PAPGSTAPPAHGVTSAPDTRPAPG

The target of test [3] is T3, T8 (Tn-MUC1) (PAPGST(α-GalNAc)APPAHGVTSAPDT(α-GalNAc)RPAPG-OH).
T3 peptide: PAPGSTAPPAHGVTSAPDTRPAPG

Test [4] addresses T4, T11 (Tn-MUC1) (PAPGSTAPPAHGVT(α-GalNAc)SAPDT(α-GalNAc)RPAPG-OH).
T4 peptide: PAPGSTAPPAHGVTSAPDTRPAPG

Test [5] has as its target T5, S11 (sTn-MUC1) (PAPGSTAPPAHGVT(Neu5Ac-α(2-6)-GalNAc)SAPDT(Neu5Ac-a(2-6)-GalNAc)RPAPG-OH).
T5 peptide: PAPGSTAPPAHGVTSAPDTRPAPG

Test [6] concerns the target T6, S9 (sTn-MUC1) (PAPGSTAPPAHGVT(Neu5Ac-α(2-6)-GalNAc)S(Neu5Ac-a(2-6)-GalNAc)APDTRPAPG-OH).
T6 peptide: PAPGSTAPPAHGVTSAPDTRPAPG

The target of test [7] is T7, S4 (sTn-MUC1) (PAPGSTAPPAHGVT(Neu5Ac-α(2-6)-GalNAc)SAPDTRPAPG-OH).
T7 peptide: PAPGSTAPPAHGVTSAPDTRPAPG

B1: SEQ ID NO 178 (bivalent monospecific MUC1 IgG) (antibody, V domains shown)
VH: QVQLVQSGAEVKKPGASVKVSCKASGYTFNRHYIQWVRQAPGQGLEWMGTINPYDGSTFYAQKFQDRVTMTRDTSTSTVYMDLNSLKSEDTAVYYCARDYMRGHVLFDYWGQGTLVTVSS
VL: not shown
One may read the EC50 as the concentration giving half of the maximal effect. High values mean a need for much substance, low ones an effect from little substance. Regarding B1, the EC50 in test [1] was determined as 0.09 µg/mL; in test [2] it was 0.103 µg/mL; in test [3] it was 0.095 µg/mL; in test [4], 0.108 µg/mL; in test [5] it was 0.335 µg/mL; in test [6], 0.108 µg/mL. The molecule also gave an EC50 in test [7] of 0.098 µg/mL.

B2: 74 (antibody, V domains shown)
VH: QVQLVQSGAEVKKPGASVQVSCKASGYTFINYYLQWVRQAPGQGLEWMGTINPFDGSTHYEQNFQGRVTMTRDTSTNTVYMELNGLRSEDTAVYYCARDHMIGYILFDYWGQGTTVTVSS
As to B2, the concentration for a half-maximal effect (EC50) in test [1] is 0.096 µg/mL; in test [2], 0.111 µg/mL; in test [3] it was 0.118 µg/mL; in test [4], 0.137 µg/mL.

B3: 170 (antibody, V domains shown)
VH: QVQLVQSGAEVKKPGASVQVSCKASGYTFINYYLQWVRQAPGQGLEWMGTINPFDGSTHYAQKFQGRVTMTRDTSTNTVYMELNSLRSEDTAVYYCARDRMIGYVLFDYWGQGTLVTVSS
Consider B3, for which the EC50 turned out to be 0.127 µg/mL in test [1], 0.116 µg/mL in test [2], 0.123 µg/mL in test [3] and 0.141 µg/mL in test [4].

B4: 174 (antibody, V domains shown)
VH: EVQLVESGAEVKKPGASVKVSCKASGYTFNRYYLHWVRQAPGQGLEWMGVINPYDGSTNYAQKFRGRITMTRDTSTNTVYMELSSLRSEDTAVYFCARDAMEGDSYFDKWGQGTLVTVSS
Consider B4, for which the EC50 in test [1] was 0.144 µg/mL; in test [2], 0.178 µg/mL; in test [3], 0.174 µg/mL; in test [4], 0.192 µg/mL.

B5: 162 (antibody, V domains shown)
VH: QVQLVQSGAEVKKPGASVMLSCKASGYIFTSYYIQWVRQAPGQGLEWMGVVNPYDGSTNYAQKFQGRVTITRDTSTSTVFMELSSLRSEDTAVYYCARDNMLGHVIFDFWGQGTLVTVSS
Take B5: the EC50 in test [1] is 0.037 µg/mL; in test [2], 0.037 µg/mL; in test [3], 0.043 µg/mL; in test [4], 0.063 µg/mL.

B6: 86 (antibody, V domains shown)
VH: QVQLVQSGAEVKKPGASVKVSCKASGYPFINYYIQWVRQAPGQGLEWMGVINPFDGSTNYAQKFQGRVTVTRDTSTSTVFMDLSSLRSEDTAVYYCARDNMIGYVLFDYWGQGTLVTVSS
B6: the half-maximal effective concentration (EC50) in test [1] came out at 0.05 µg/mL; in test [2], 0.057 µg/mL; in test [3], 0.061 µg/mL; in test [4], 0.068 µg/mL; in test [5], 13.1 µg/mL; in test [6], 0.105 µg/mL. Further, the 50% effective concentration (EC50) in test [7] came out at 0.074 µg/mL.

B7: 206 (antibody, V domains shown)
VH: QVQLVQSGAEVKKPGASVRVSCKASGYPFINYYIQWVRQAPGQGLEWMGVINPFDGSTNYAQKFQGRVTVTRDTSTSTVFMDLNSLRSEDTAVYYCARDSMIGYVLFDFWGQGTLVTVSS
In the case of B7, the concentration for a half-maximal effect (EC50) in test [1] turned out to be 0.066 µg/mL; in test [2], 0.068 µg/mL; in test [3] it was 0.084 µg/mL; in test [4], 0.088 µg/mL.

B8: 138 (antibody, V domains shown)
VH: QVQLVQSGAEVKKPGASVRVSCKASGYTFINYYLQWVRQAPGQGLEWMGTINPFDGSTHYAQKFQGRVTMTRDTSTSTVYMELSSLRSEDTAVYYCARDSMIGYVLFDYWGQGTLVTVSS
As to B8, the EC50 in test [1] stood at 0.096 µg/mL; in test [2] it was 0.116 µg/mL; in test [3], 0.106 µg/mL; in test [4], 0.123 µg/mL.

B9: SEQ ID NO 29 (bivalent monospecific MUC1 IgG) (antibody, V domains shown)
VH: QVQLVQSGAEVKKPGASVKVSCKASGYSFIHYYIHWVRQAPGQGLEWMGVINPFDGSTNYAQKFQDRVTVTRDTSTSTVFMDLSSLRSEDTAVYYCARDNMIGYVLFDDWGQGTLVTVSS
VL: not shown
On to B9, for which the 50% effective concentration (EC50) in test [1] is 0.118 µg/mL; in test [2] it was 0.104 µg/mL; in test [3], 0.121 µg/mL; in test [4], 0.126 µg/mL; in test [5] it was 6.96 µg/mL; in test [6], 0.22 µg/mL. The molecule also gave an EC50 in test [7] of 0.118 µg/mL.

B10: 33 (antibody, V domains shown)
VH: QVQLVQSGAEVKKPGASVRVSCKASGYPFINYYIQWVRQAPGQGLEWMGVINPFDGSTNYAQKFQDRVTVTRDTSTSTVFMDLSSLRSEDTAVYYCARDNMIGYVLLDYWGQGTLVTVSS
Turning to B10, the EC50 in test [1] amounted to 0.071 µg/mL; in test [2], 0.076 µg/mL; in test [3], 0.079 µg/mL; in test [4], 0.088 µg/mL.

B11: 190 (antibody, V domains shown)
VH: QVQLVQSGAEVKKPGASVKVSCKASGYAFTNYYIHWVRQAPGHGLTWMGVINPFDSSTDFAQKFQGRLTMTRDTSTSTVYMDLSSLRSEDTAVYYCARDYMRGHVVFDNWGQGTLVTVSS
Turning to B11, the EC50 was 0.12 µg/mL in test [1], 0.102 µg/mL in test [2], 0.108 µg/mL in test [3] and 0.122 µg/mL in test [4].

B12: 102 (antibody, V domains shown)
VH: QVQLVQSGAEVKKSGASVKVSCKASGYPFISYYIHWLRQAPGQGLTWMGVINPFDGSTDYAQKFQGRVTVTRDTSTSTVYMDLSSLRADDTAIYYCARDYMRGYVVFDYWGQGTLVTVSS
As for B12, the EC50 in test [1] worked out at 0.102 µg/mL; in test [2], 0.087 µg/mL; in test [3], 0.101 µg/mL; in test [4], 0.111 µg/mL.

B13: 146 (antibody, V domains shown)
VH: QVQLVQSGAEVKKPGASVKVSCKASGYAFTSYYIHWVRQAPGQGLEWMGVINPYGGSTNYAQKFQGRVTMTRDTSTRIVYMDLSSLRSEDTAVYYCARDAMEGDSYFDYWGQGTLVTVSS
Turning to B13, the EC50 in test [1] came out at 0.086 µg/mL; in test [2], 0.081 µg/mL; in test [3], 0.104 µg/mL; in test [4], 0.116 µg/mL.

B14: 13 (antibody, V domains shown)
VH: QVQLVQSGAEVKKPGASLKVSCKASGYTFTNYYIQWVRQAPGQGLEWMGVINPYDGSTNYAQKFQGRVTLTRDTSTTTVYMELSSLRSDDTAVYYCARDYMIGYVVFDYWGQGTLVTVSS
Consider B14, for which the EC50 in test [1] was found to be 0.134 µg/mL; in test [2] it was 0.153 µg/mL; in test [3], 0.145 µg/mL; in test [4] it was 0.158 µg/mL; in test [6] it was 0.279 µg/mL; in test [7], 0.156 µg/mL.

B15: 194 (antibody, V domains shown)
VH: QVQLVQSGAEVKKPGTSVKVSCTASGYTFTNYYIQWVRQAPGQGLEWLGVINPYDGSTDYAQKFQGRVTLTRDTSTTTVYMELSSLRSEDTAVYYCARDYMLGYVVFDFWGQGTLVTVSS
As to B15, the EC50 worked out at 0.082 µg/mL in test [1], 0.1 µg/mL in test [2], 0.099 µg/mL in test [3] and 0.109 µg/mL in test [4].

B16: 198 (antibody, V domains shown)
VH: QVQLVQSGAEVKKPGASVKVSCKASGYTFINNYIQWVRQAPGQGLEWMGVINPYDGSIHYAQKFQGRVTLTRDTSTTTVYMELSSLRSEDTAVYYCARDYMIGYVVFEYWGQGTLVTVSS
Take B16: the EC50 in test [1] is 0.121 µg/mL; in test [2] it was 0.111 µg/mL; in test [3], 0.121 µg/mL; in test [4], 0.137 µg/mL.

B17: 150 (antibody, V domains shown)
VH: QVQLVQSGAEVKTPGASVKVSCKASGYTFTNYYIQWVRQAPGQALEWMGVINPYDGSTHYAQKFQGRVTLTRDTSTTTVYMDLSSLRSEDAAVYYCARDYMLGYVVFDYWGQGTLVTVSS
B17: the EC50 in test [1] stood at 0.098 µg/mL; in test [2], 0.126 µg/mL; in test [3], 0.135 µg/mL; in test [4], 0.157 µg/mL.

B18: 41 (antibody, V domains shown)
VH: QVQLVQSGAEVKEPGASMTLSCKTSGYTFISNYIHWLRQAPGQGLEWLGVINPFGGATNYAQKFQGRVTMTRDTSTITVYMELSSLRSEDTAVYYCARDAMGGDSHFDYWGQGTLVTVSS
With B18, the EC50 was 0.113 µg/mL in test [1], 0.1 µg/mL in test [2], 0.114 µg/mL in test [3] and 0.134 µg/mL in test [4].

B19: 37 (antibody, V domains shown)
VH: QVQLVQSGAEVKKPGASVTVSCKTSGYTFTSYYIHWLRQAPGQGLEWMGVINPFGGATNYAQKFQGRVTMTRDTSTITVYMELSSLRSEDTAVYYCARDAMGGDSHFDHWGRGTLVTVSS
For B19, the EC50 in test [1] was 0.13 µg/mL; in test [2], 0.157 µg/mL; in test [3], 0.144 µg/mL; in test [4] it was 0.158 µg/mL.

B20: 62 (antibody, V domains shown)
VH: QVQLVESGAEVKKPGASVKVSCKASGYSFTSYYIQWVRQAPGQGLEWLAVINPIDGSTNYAQKFQGRVTVTRDTSTSTVYMELSSLRSEDTAVYYCARDYMRGFVVFDYWGQGTLVTVSS
Consider B20, for which the EC50 in test [1] was found to be 0.045 µg/mL; in test [2], 0.042 µg/mL; in test [3], 0.07 µg/mL; in test [4], 0.097 µg/mL.
